Test results published in PMC12052392 (PLOS Pathogens, 2025).
Where a chain is given by its changes, count along the chain named.

T1: epitope SH-peptide (spanning residues D1139-D1153) (SARS-CoV-2 prototype, UniProt P0DTC2)
T1 chain: DPLQPELDSFKEELD

T2: GST-fused truncated S2 protein S2 (P1140-D1153) (SARS-CoV-2, MN908947.3, UniProt P0DTC2)
T2 construct: not shown: GST, N-terminal, kept
T2 chain: PLQPELDSFKEELD

T3: GST-fused truncated S2 protein S2 (D1139-E1150) (SARS-CoV-2, MN908947.3, UniProt P0DTC2)
T3 construct: not shown: GST, N-terminal, kept
T3 chain: DPLQPELDSFKE

T4: GST-fused truncated S2 protein S2 (L1141-L1152) (SARS-CoV-2 prototype (MN908947.3), UniProt P0DTC2)
T4 construct: not shown: GST, N-terminal, kept
T4 chain: LQPELDSFKEEL

T5: GST-fused truncated S2 protein S2 (P1140-L1152) (SARS-CoV-2 prototype (MN908947.3), UniProt P0DTC2)
T5 construct: not shown: GST, N-terminal, kept
T5 chain: PLQPELDSFKEEL

T6: GST-fused truncated S2 protein S2 (D1139-L1152) (SARS-CoV-2, MN908947.3)
T6 construct: not shown: GST, N-terminal, kept
T6 chain: DPLQPELDSFKEEL

B1: nanobody H145 (VHH)
VHH: QVQLVESGGGLVQTGGSLRLSCEASGSAFSSYAVNWYRQAPGKQREPVAAIGSFNTVYSDSVKGRFTISRDNAKNTVYLQMNSLKPEDTAVYICNARRGATNTWGQGTQVTVSS
notes: also called anti-SH nNb H145; not shown: His6, C-terminal, kept
B2: nanobody H17 (VHH)
VHH: B1 VHH with Q1E, L4V, E23A, I93V, T103Y, S114P
notes: also called anti-SH nNb H17; not shown: His6, C-terminal, kept

Columns and labels:
[1] = biological target: T1, epitope SH-peptide (spanning residues …); experiment: crystal structure; conditions: both partners purified
[2] = biological target: T7, GST-fused truncated S2 protein S2 (T1076-H1159) (SARS-CoV-2 prototype (MN908947.3), UniProt P0DTC2); experiment: far-Western, overlay or dot blot; conditions: both partners purified
T7 construct: not shown: GST, N-terminal, kept

[3] = biological target: T2, GST-fused truncated S2 protein S2 …; experiment: BLI; […]; 20 mM HEPES pH 7.4, 150 mM NaCl, 0.05% Tween-20; conditions: both partners purified
[4] = biological target: T3, GST-fused truncated S2 protein S2 …; experiment: as above; conditions: both partners purified
[5] = biological target: T4, GST-fused truncated S2 protein S2 …; experiment: as above; conditions: both partners purified
[6] = biological target: T5, GST-fused truncated S2 protein S2 …; experiment: as above; conditions: both partners purified
[7] = biological target: PANG/GD spike (S) protein expressed on HEK-293T cells (Pangolin coronavirus Guangdong …, strain); experiment: flow cytometry on cells; conditions: one partner purified
[8] = biological target: HKU3 spike (S) protein expressed on HEK-293T cells (Bat SARS-like coronavirus HKU3, GenBank …, UniProt A0A7G6UAJ9, strain); experiment: flow cytometry on cells; conditions: one partner purified
[9] = biological target: SARS-CoV-2 spike (S) protein, full-length, expressed on the surface of HEK-293T cells (SARS-CoV-2 prototype (MN908947.3), UniProt P0DTC2); experiment: flow cytometry on cells; conditions: one partner purified
[10] = biological target: WIV1 spike (S) protein expressed on HEK-293T cells (Bat SARS-like coronavirus WIV1 …, UniProt U5WI05, strain); experiment: flow cytometry on cells; conditions: one partner purified
[11] = biological target: SARS-CoV spike (S) protein expressed on HEK-293T cells (SARS-CoV, GenBank AY278554.2, UniProt P59594); experiment: flow cytometry on cells; conditions: one partner purified
[12] = biological target: S2 (T1076-Q1208) protein as coated in ELISA (devoid of the His tag) (SARS-CoV-2, MN908947.3, UniProt P0DTC2); experiment: ELISA; […], room temperature; […]; conditions: both partners purified
[13] = biological target: T6, GST-fused truncated S2 protein S2 …; experiment: ELISA; […], room temperature; […]; conditions: both partners purified
[14] = biological target: T2, GST-fused truncated S2 protein S2 …; experiment: ELISA; […], room temperature; […]; conditions: both partners purified
[15] = biological target: T4, GST-fused truncated S2 protein S2 …; experiment: ELISA; […], room temperature; […]; conditions: both partners purified
[16] = biological target: T5, GST-fused truncated S2 protein S2 …; experiment: ELISA; […], room temperature; […]; conditions: both partners purified

Row | Binder | binding result [1] | binding result [2] | binding result [3] | binding result [4] | binding result [5] | binding result [6] | binding result [7] | binding result [8] | binding result [9] | binding result [10] | binding result [11] | binding result [12] | EC50 [13] | binding result [14] | binding result [15] | binding result [16]
1 | B1 | binds | binds | no binding (tested: 200 nM) | binds | no binding (tested: 200 nM) | no binding (tested: 200 nM) | binds | binds | binds | binds | binds | binds | 2 nM | – | – | –
2 | B2 | – | binds | – | – | – | – | binds | binds | binds | binds | binds | binds | 11.3 nM | no binding (tested: 200 nM) | no binding (tested: 200 nM) | no binding (tested: 200 nM)
